From US10772928B2, “Modulation and detection of a neuronal alternative splicing regulatory network for treatment and diagnosis of neurological disorders” (The Governing Council of the University of Toronto, priority 2014, dated 2020)

Molecular target: T1, nSR100 (Mus musculus, UniProt Q8BKA3)
T1 construct: host or cells: mouse N2A cells
T1 sequence (Q8BKA3 1-608): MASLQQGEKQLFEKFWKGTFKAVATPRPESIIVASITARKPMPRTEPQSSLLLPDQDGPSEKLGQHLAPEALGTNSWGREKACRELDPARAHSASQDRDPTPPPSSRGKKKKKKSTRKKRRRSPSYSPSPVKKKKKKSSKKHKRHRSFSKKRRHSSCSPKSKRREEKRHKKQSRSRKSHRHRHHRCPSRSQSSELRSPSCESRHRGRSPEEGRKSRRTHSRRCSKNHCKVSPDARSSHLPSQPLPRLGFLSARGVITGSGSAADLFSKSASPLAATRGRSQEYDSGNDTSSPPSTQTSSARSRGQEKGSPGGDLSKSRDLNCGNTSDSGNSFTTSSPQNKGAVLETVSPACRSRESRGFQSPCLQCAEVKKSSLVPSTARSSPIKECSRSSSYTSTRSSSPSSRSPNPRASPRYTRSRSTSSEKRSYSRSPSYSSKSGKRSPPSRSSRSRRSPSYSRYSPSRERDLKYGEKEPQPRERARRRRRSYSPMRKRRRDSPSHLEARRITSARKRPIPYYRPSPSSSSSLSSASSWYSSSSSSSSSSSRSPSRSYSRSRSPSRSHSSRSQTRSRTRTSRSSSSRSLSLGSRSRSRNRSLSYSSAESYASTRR
Experiment: AP-MS nSR100 interaction partners from mouse N2A cells (Table 5)
Format: binding
Conditions: for AvgP (average of the SAINT scores) / MaxP (maximal SAINT score): bait Srrm4; for FoldChange between the prey Avg spectra of the bait and control purifications: bait Srrm4, 0.1 added to prevent division by 0; for AvgSpec (average number of spectra per replicate): bait Srrm4, 2 replicates; for Spectra (number of spectra for the prey in the purification of the bait): AP-MS; for SpecSum: bait Srrm4, sum of spectra over 2 replicates

[1] = bait Srrm4, biological replicate 1 (first number of the cell)
[2] = bait Srrm4, biological replicate 2 (second number of the cell)

Source text: By applying affinity purification coupled to mass-spectrometry (AP-MS), several interaction nSR100 partner proteins were detected that provide insight into mechanisms of post-translational regulation of nSR100 levels.

AvgP (average of the SAINT scores)	MaxP (maximal SAINT score)	FoldChange between the prey Avg spectra of the bait and control purifications	AvgSpec (average number of spectra per replicate)	Spectra (number of spectra for the prey in the purification of the bait) [1]	Spectra (number of spectra for the prey in the purification of the bait) [2]	SpecSum	Substance
1	1	6.16	117	97	137	234	Ap2a2
1	1	9.12	36.5	31	42	73	Ap2m1
1	1	9.5	19	17	21	38	Bub3
1	1	90	9	6	12	18	Cdc42bpb
1	1	14.25	57	47	67	114	Cdk1
0.97	0.99	25	2.5	2	3	5	Clk3
0.99	1	8.5	8.5	10	7	17	Csnk2b
1	1	150	15	15|15	15|15	30	Ddx39b
0.95	0.95	20	2	2|2	2|2	4	Gpatch8
1	1	390	39	41	37	78	Hspa2
1	1	6.6	16.5	17	16	33	Idh2
1	1	21	10.5	10	11	21	Magohb
0.97	1	4	14	16	12	28	Nudt21
0.99	1	11.33	17	16	18	34	Pcbp1
1	1	25.33	38	33	43	76	Pnn
1	1	3.36	60.5	63	58	121	Prpf8
0.95	0.95	20	2	2|2	2|2	4	Prrc2a
0.95	0.95	20	2	2|2	2|2	4	Rfc2
1	1	5.1	51	48	54	102	Snrnp70
0.99	1	11	5.5	5	6	11	Snrpc
0.98	1	45	4.5	2	7	9	Son
1	1	5.37	51	47	55	102	Srrm2
1	1	45	4.5	3	6	9	Wdr48
1	1	3.57	25	24	26	50	Ywhae
